Measurements taken from patent publication US20050114927A1 (RUTGERS THE STATE UNIVERSITY, published 2005).

Molecular target: T1, Yeast wild-type ribosomal protein L3 (rpl3), in vitro synthesized, free form (Saccharomyces cerevisiae (yeast), UniProt P14126 1-387)
T1 construct: also called wild-type L3; radiolabeled L3
Test: co-immunoprecipitation, isolated proteins in vitro

T1 sequence (P14126 whole entry): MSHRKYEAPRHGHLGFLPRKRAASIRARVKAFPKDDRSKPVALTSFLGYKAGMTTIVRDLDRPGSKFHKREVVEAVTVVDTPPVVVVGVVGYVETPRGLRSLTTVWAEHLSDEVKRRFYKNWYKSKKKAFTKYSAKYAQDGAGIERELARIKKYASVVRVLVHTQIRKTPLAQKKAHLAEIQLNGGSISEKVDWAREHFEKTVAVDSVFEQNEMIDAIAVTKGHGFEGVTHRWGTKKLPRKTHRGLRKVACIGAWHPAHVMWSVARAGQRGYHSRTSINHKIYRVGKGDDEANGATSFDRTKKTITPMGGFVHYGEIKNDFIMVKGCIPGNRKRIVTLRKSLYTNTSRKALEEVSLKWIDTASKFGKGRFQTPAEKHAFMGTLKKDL

B1: Pokeweed antiviral protein (PAP) (enzyme)
chain: VNTIIYNVGSTTISKYATFLNDLRNEAKDPSLKCYGIPMLPNTNTNPKYVLVELQGSNKKTITLMLRRNNLYVMGYSDPFETNKCRYHIFNDISGTERQDVETTLCPNANSRVSKNINFDSRYPTLESKAGVKSRSQVQLGIQILDSNIGKISGVMSFTEKTEAEFLLVAIQMVSEAARFKYIENQVKTNFNRAFNPNPKVLNLQETWGKISTAIHDAKNGVLPKPLELVDASGAKWIVLRVDEIKPDVALLNYVGGSCQTTY
notes: mature
- binding result: binds
